The chains are these.
B1: CPEB3 Ribozyme (parent)
chain: GGGGGCCACAGCAGAAGCGUUCACGUCGCGGCCCCUGUCAGAUUCUGGUGAAUCUGCGAAUUCUGCUGU

The variants in the data set derive from B1. The data set is described as follows: self-cleavage, relative activity (ratio to wild type); higher = more cleavage; co-transcriptional.
On to GGGGGCCACAGCAGAAGCGUUCACGUCGCGGCCCCUGUCAGAUUCUGGCGAAUCUCCGAAUUCUGCUGU, for which the self-cleavage stood at 0.778.

Turning to GGGGGCCACAGCAGAAGCGUUCACGUCGCGGCCCCUGUCAGAUUCUGGCGCAUCUGCGAAUUCUGCUGU, the self-cleavage came to 0.981.

On to GGGGGCCACAGCAGAAGCGUUCACGUCGCGGCCCCUGUCAGAUUCUGGCGUAUCUGCGAAUUCUGCUGU, for which the self-cleavage is 0.887.

Consider GGGGGCCACAGCAGAAGCGUUCACGUCGCGGCCCCUGUCAGAUUCUGUUGAAGCUGCGAAUUCUGCUGU, for which the self-cleavage turned out to be 0.94.

Take GGGGGCCACAGCAGAAGCGUUCACGUCGCGGCCCCUGUCAGAUUCUGGAGAAACUGCGAAUUCUGCUGU: the self-cleavage was 0.984.

As for GGGGGCCACAGCAGAAGCGUUCACGUCGCGGCCCCUGUCAGAUUCUGGAGAAGCUGCGAAUUCUGCUGU, the self-cleavage is 0.95.

With GGGGGCCACAGCAGAAGCGUUCACGUCGCGGCCCCUGUCAGAUUCUGGAGAAUCUGCGAAUUCUGCUAU, the self-cleavage was 1.02.

On to GGGGGCCACAGCAGAAGCGUUCACGUCGCGGCCCCUGUCAGAUUCUGGAGAAUCUGCGAAUUCUGCUCU, for which the self-cleavage was 0.994.

With GGGGGCCACAGCAGAAGCGUUCACGUCGCGGCCCCUGUCAGAUUCUGGAGAAUCUGCGAAUUCUCCUGU, the self-cleavage is 0.476.

Consider GGGGGCCACAGCAGAAGCGUUCACGUCGCGGCCCCUGUCAGAUUCUGGAGAAUCUGCGAAUUCUACUGU, for which the self-cleavage stood at 0.934.

GGGGGCCACAGCAGAAGCGUUCACGUCGCGGCCCCUGUCAGAUUCUGGAGAAUCUGGGAAUUCUGCUGU: the self-cleavage was determined as 0.346.

Regarding GGGGGCCACAGCAGAAGCGUUCACGUCGCGGCCCCUGUCAGAUUCUGGAGAAUCUGAGAAUUCUGCUGU, the self-cleavage turned out to be 0.273.

Consider GGGGGCCACAGCAGAAGCGUUCACGUCGCGGCCCCUGUCAGAUUCUGGAGAAUCUGCGACUUCUGCUGU, for which the self-cleavage was found to be 0.394.

Take GGGGGCCACAGCAGAAGCGUUCACGUCGCGGCCCCUGUCAGAUUCUGGAGAAUCUGCGAGUUCUGCUGU: the self-cleavage amounted to 0.915.

On to GGGGGCCACAGCAGAAGCGUUCACGUCGCGGCCCCUGUCAGAUUCUGGAGAAUCUGCGAUUUCUGCUGU, for which the self-cleavage is 0.582.

On to GGGGGCCACAGCAGAAGCGUUCACGUCGCGGCCCCUGUCAGAUUCUGGAGAAUCUGCGAAUUAUGCUGU, for which the self-cleavage was 0.943.

For the variant GGGGGCCACAGCAGAAGCGUUCACGUCGCGGCCCCUGUCAGAUUCUGGAGAAUCUGCGAAUUGUGCUGU, the self-cleavage amounted to 0.878.

As for GGGGGCCACAGCAGAAGCGUUCACGUCGCGGCCCCUGUCAGAUUCUGGCGAAUCUGCGAUUUCUGCUGU, the self-cleavage was 0.535.

GGGGGCCACAGCAGAAGCGUUCACGUCGCGGCCCCUGUCAGAUUCUGGCGAAUCUGCGACUUCUGCUGU: the self-cleavage amounted to 0.354.

For GGGGGCCACAGCAGAAGCGUUCACGUCGCGGCCCCUGUCAGAUUCUGGAGAGUCUGCGAAUUCUGCUGU, the self-cleavage stood at 0.979.

Turning to GGGGGCCACAGCAGAAGCGUUCACGUCGCGGCCCCUGUCAGAUUCUGGAGAAUCUUCGAAUUCUGCUGU, the self-cleavage worked out at 0.991.

In the case of GGGGGCCACAGCAGAAGCGUUCACGUCGCGGCCCCUGUCAGAUUCUGGAGAAUCUACGAAUUCUGCUGU, the self-cleavage turned out to be 1.

With GGGGGCCACAGCAGAAGCGUUCACGUCGCGGCCCCUGUCAGAUUCUGGAGUAUCUGCGAAUUCUGCUGU, the self-cleavage amounted to 1.

For GGGGGCCACAGCAGAAGCGUUCACGUCGCGGCCCCUGUCAGAUUCUGGCGAAUCUGCGAAUUAUGCUGU, the self-cleavage turned out to be 0.882.

Consider GGGGGCCACAGCAGAAGCGUUCACGUCGCGGCCCCUGUCAGAUUCUGGCGAAUCUGCGAAUUGUGCUGU, for which the self-cleavage was found to be 0.832.

GGGGGCCACAGCAGAAGCGUUCACGUCGCGGCCCCUGUCAGAUUCUGGAGAAUCAGCGAAUUCUGCUGU: the self-cleavage came to 0.968.

As for GGGGGCCACAGCAGAAGCGUUCACGUCGCGGCCCCUGUCAGAUUCUGUUGAAUCUGCGAAUCCUGCUGU, the self-cleavage is 0.929.

For the variant GGGGGCCACAGCAGAAGCGUUCACGUCGCGGCCCCUGUCAGAUUCUGGAGAAUCUGCGUAUUCUGCUGU, the self-cleavage came to 0.85.

On to GGGGGCCACAGCAGAAGCGUUCACGUCGCGGCCCCUGUCAGAUUCUGGAGAAUCUGCGCAUUCUGCUGU, for which the self-cleavage was determined as 0.798.

GGGGGCCACAGCAGAAGCGUUCACGUCGCGGCCCCUGUCAGAUUCUGGAGAAUCUGCGGAUUCUGCUGU: the self-cleavage amounted to 0.995.

With GGGGGCCACAGCAGAAGCGUUCACGUCGCGGCCCCUGUCAGAUUCUGGCUAAUCUGCGAAUUCUGCUGU, the self-cleavage was 1.03.

In the case of GGGGGCCACAGCAGAAGCGUUCACGUCGCGGCCCCUGUCAGAUUCUGGCCAAUCUGCGAAUUCUGCUGU, the self-cleavage came to 1.03.

As to GGGGGCCACAGCAGAAGCGUUCACGUCGCGGCCCCUGUCAGAUUCUGGAGAAUCUGCGAAUACUGCUGU, the self-cleavage came out at 0.99.

Regarding GGGGGCCACAGCAGAAGCGUUCACGUCGCGGCCCCUGUCAGAUUCUGGAGAAUCUGCGAAUCCUGCUGU, the self-cleavage was determined as 0.825.

With GGGGGCCACAGCAGAAGCGUUCACGUCGCGGCCCCUGUCAGAUUCUGUUGAAUCUGCGAAUUCUGCUGG, the self-cleavage was 1.05.

For GGGGGCCACAGCAGAAGCGUUCACGUCGCGGCCCCUGUCAGAUUCUGUUGAAUCUGCGAAUUCUGCUGA, the self-cleavage was 1.01.

As for GGGGGCCACAGCAGAAGCGUUCACGUCGCGGCCCCUGUCAGAUUCUGUUGAAUCUGCGAAUUCUGCUGC, the self-cleavage turned out to be 1.04.

With GGGGGCCACAGCAGAAGCGUUCACGUCGCGGCCCCUGUCAGAUUCUGGCGAUUCUGCGAAUUCUGCUGU, the self-cleavage came out at 0.93.

As for GGGGGCCACAGCAGAAGCGUUCACGUCGCGGCCCCUGUCAGAUUCUGGCGACUCUGCGAAUUCUGCUGU, the self-cleavage was 1.03.

As for GGGGGCCACAGCAGAAGCGUUCACGUCGCGGCCCCUGUCAGAUUCUGGCGAGUCUGCGAAUUCUGCUGU, the self-cleavage turned out to be 0.972.

Turning to GGGGGCCACAGCAGAAGCGUUCACGUCGCGGCCCCUGUCAGAUUCUGGAGAAUCUGCUAAUUCUGCUGU, the self-cleavage stood at 0.972.

For GGGGGCCACAGCAGAAGCGUUCACGUCGCGGCCCCUGUCAGAUUCUGGAGAAUCUGCCAAUUCUGCUGU, the self-cleavage stood at 1.02.

For GGGGGCCACAGCAGAAGCGUUCACGUCGCGGCCCCUGUCAGAUUCUGGAGAAUCUGCGAAGUCUGCUGU, the self-cleavage is 0.904.

For the variant GGGGGCCACAGCAGAAGCGUUCACGUCGCGGCCCCUGUCAGAUUCUGGAGAAUCUGCGAAAUCUGCUGU, the self-cleavage was determined as 0.979.

In the case of GGGGGCCACAGCAGAAGCGUUCACGUCGCGGCCCCUGUCAGAUUCUGUUGAAUCUGCGAAUUCGGCUGU, the self-cleavage came to 0.955.

On to GGGGGCCACAGCAGAAGCGUUCACGUCGCGGCCCCUGUCAGAUUCUGUUGAAUCUGCGAAUUCCGCUGU, for which the self-cleavage came to 0.876.

On to GGGGGCCACAGCAGAAGCGUUCACGUCGCGGCCCCUGUCAGAUUCUGUUGAAUCUGCGAAUUCAGCUGU, for which the self-cleavage is 0.96.

With GGGGGCCACAGCAGAAGCGUUCACGUCGCGGCCCCUGUCAGAUUCUGGAGAAUCUGCGAAUUCUGCUGG, the self-cleavage was found to be 1.06.

With GGGGGCCACAGCAGAAGCGUUCACGUCGCGGCCCCUGUCAGAUUCUGGAAAAUCUGCGAAUUCUGCUGU, the self-cleavage came out at 0.995.

Turning to GGGGGCCACAGCAGAAGCGUUCACGUCGCGGCCCCUGUCAGAUUCUGGACAAUCUGCGAAUUCUGCUGU, the self-cleavage is 1.02.

In the case of GGGGGCCACAGCAGAAGCGUUCACGUCGCGGCCCCUGUCAGAUUCUGGAGAAUCUGCGAAUUCCGCUGU, the self-cleavage came to 0.919.

Turning to GGGGGCCACAGCAGAAGCGUUCACGUCGCGGCCCCUGUCAGAUUCUGGAGAAUCUGCGAAUUCGGCUGU, the self-cleavage turned out to be 0.835.

With GGGGGCCACAGCAGAAGCGUUCACGUCGCGGCCCCUGUCAGAUUCUGUUGAAUCUGCGAAAUCUGCUGU, the self-cleavage was 0.924.

As for GGGGGCCACAGCAGAAGCGUUCACGUCGCGGCCCCUGUCAGAUUCUGUUGAAUCUGCGAACUCUGCUGU, the self-cleavage is 0.905.

Consider GGGGGCCACAGCAGAAGCGUUCACGUCGCGGCCCCUGUCAGAUUCUGGCGAAUCUGUGAAUUCUGCUGU, for which the self-cleavage is 0.345.

On to GGGGGCCACAGCAGAAGCGUUCACGUCGCGGCCCCUGUCAGAUUCUGGCGAAUCUGAGAAUUCUGCUGU, for which the self-cleavage was 0.216.

Consider GGGGGCCACAGCAGAAGCGUUCACGUCGCGGCCCCUGUCAGAUUCUGGCGAAUCUGGGAAUUCUGCUGU, for which the self-cleavage is 0.265.

On to GGGGGCCACAGCAGAAGCGUUCACGUCGCGGCCCCUGUCAGAUUCUGGCGAAUCUGCGCAUUCUGCUGU, for which the self-cleavage amounted to 0.764.

Turning to GGGGGCCACAGCAGAAGCGUUCACGUCGCGGCCCCUGUCAGAUUCUGGCGAAUCUGCGUAUUCUGCUGU, the self-cleavage came out at 0.811.

As for GGGGGCCACAGCAGAAGCGUUCACGUCGCGGCCCCUGUCAGAUUCUGGCGAAUCUGCGGAUUCUGCUGU, the self-cleavage was 0.985.

On to GGGGGCCACAGCAGAAGCGUUCACGUCGCGGCCCCUGUCAGAUUCUGGCGAAUCUGCAAAUUCUGCUGU, for which the self-cleavage turned out to be 0.911.

In the case of GGGGGCCACAGCAGAAGCGUUCACGUCGCGGCCCCUGUCAGAUUCUGGCGAAUCUGCUAAUUCUGCUGU, the self-cleavage stood at 0.988.

Take GGGGGCCACAGCAGAAGCGUUCACGUCGCGGCCCCUGUCAGAUUCUGGCGAAUCUGCGAAUUCUACUGU: the self-cleavage worked out at 0.89.

In the case of GGGGGCCACAGCAGAAGCGUUCACGUCGCGGCCCCUGUCAGAUUCUGGCGAAUCUGCGAAUUCUGUUGU, the self-cleavage was found to be 0.973.

Take GGGGGCCACAGCAGAAGCGUUCACGUCGCGGCCCCUGUCAGAUUCUGGCGAAUCUGCGAAUUCUGGUGU: the self-cleavage came to 0.879.

Take GGGGGCCACAGCAGAAGCGUUCACGUCGCGGCCCCUGUCAGAUUCUGUUGAAUCCGCGAAUUCUGCUGU: the self-cleavage came out at 0.977.

On to GGGGGCCACAGCAGAAGCGUUCACGUCGCGGCCCCUGUCAGAUUCUGUUGAAUCGGCGAAUUCUGCUGU, for which the self-cleavage was determined as 0.968.

Consider GGGGGCCACAGCAGAAGCGUUCACGUCGCGGCCCCUGUCAGAUUCUGUUGAAUCUGCGAAUUCUGCCGU, for which the self-cleavage is 1.

Regarding GGGGGCCACAGCAGAAGCGUUCACGUCGCGGCCCCUGUCAGAUUCUGUUGAAUCUGCGAAUUCUGCAGU, the self-cleavage is 1.01.

Consider GGGGGCCACAGCAGAAGCGUUCACGUCGCGGCCCCUGUCAGAUUCUGUUGAAUCUGCGAAUUCUGCGGU, for which the self-cleavage is 1.05.

GGGGGCCACAGCAGAAGCGUUCACGUCGCGGCCCCUGUCAGAUUCUGGAGAAUUUGCGAAUUCUGCUGU: the self-cleavage was 0.995.

Consider GGGGGCCACAGCAGAAGCGUUCACGUCGCGGCCCCUGUCAGAUUCUGGAGAAUGUGCGAAUUCUGCUGU, for which the self-cleavage was 0.947.

As for GGGGGCCACAGCAGAAGCGUUCACGUCGCGGCCCCUGUCAGAUUCUGGAGAAUAUGCGAAUUCUGCUGU, the self-cleavage turned out to be 0.641.

Consider GGGGGCCACAGCAGAAGCGUUCACGUCGCGGCCCCUGUCAGAUUCUGGCGAAUGUGCGAAUUCUGCUGU, for which the self-cleavage was found to be 0.789.

Take GGGGGCCACAGCAGAAGCGUUCACGUCGCGGCCCCUGUCAGAUUCUGGCGAAUUUGCGAAUUCUGCUGU: the self-cleavage was determined as 0.965.

As for GGGGGCCACAGCAGAAGCGUUCACGUCGCGGCCCCUGUCAGAUUCUGGAGAAUCUGCGAAUUCUGGUGU, the self-cleavage turned out to be 0.96.

Turning to GGGGGCCACAGCAGAAGCGUUCACGUCGCGGCCCCUGUCAGAUUCUGGAGAAUCUGCGAAUUCUGAUGU, the self-cleavage amounted to 0.911.

GGGGGCCACAGCAGAAGCGUUCACGUCGCGGCCCCUGUCAGAUUCUGGAGAAUCUGCGAAUUCUGCAGU: the self-cleavage was 1.05.

The record behind these values is the RNAGym collection of RNA variant scans (doi:10.7554/elife.80360).
